A protein production outcome set (Wang et al. 2014)

Assay: label from the status in PepcDB records

## MVTLCQVFGVHRSSYRYWKNRPEKPDGRRAVLRSQVLELHGISHGSAGARSIATMATRRGYQMGRWLAGRLMKELGLVSCQQPTHRYKRGGHEHVAMPKWVILYCRRWMEAPMQSCENGELITRTRGTPQGGVISPLLANLFLHYAFDLWMEREYRGVPFERYADDIVVHCSRMSDATRLKNRLSERFSEVGLVLNAGKTNIAYIDTFKRRNVATSFTFLGYDFKVRTLKNFKGERYRKCMPGASNAAMRKITETIKKWRIHRSTAESLLDFARRYNTIVRGWIEYYGKFWSRNFNYRLWSAMQSRLLKWMQSKYRLSNRKAQRKLTLVRKEYPKLFVHWYLLRASNE
  protein production: failed

## MTGTSDDEEGKWKNRSTTLRRLGRQYSPDVTPEVASRRLKQWIVGNPVLLGLLHENGWTASRRVLTPKQVEQIVRVLGEP
  protein production: failed

## RNKPKGHLRIAIGGSTACDVLIPLLADFMTSWPDIRINLQVADKPADLISGNIDSAIRGGPMEDSTLIARKIGEATLVTCATPGYLQRYGTPASPDELHHGHRLISYLSPASGRAFPFRFTRH
  protein production: failed

## MPHNLFSLFSQPLKPPLFEPGEPRFWDDPHISKSMLEAHLNQTHDGASRRNAEIEKTIRHLITSGFLKTGDQVLDLGCGPGLYSSKLCFEGMKVTGIDLSRRSIDYARAQAERDGQNIDYIYTDFFNIDYKETFDAVLQVYGEICTFSDEKRDLLLNLVHRALKDNGIFIFDVSTRELRMREGLKNRWYFSEGGFWRPGKHLVLEEGFDYPENDTWLNQYIIVDEDGTVKVYRLWLHDYSFETISQTLENNGFRVEKAWNNLSGELYQKGGDWIAIAAKKV
  protein production: failed

## MEYGFWLPIFGGWLRNVNDESMPPTFEYAKQTAQAAEQLGFSTTLIAELNLNDIKGVSAPSLEAWTTAAALAAVTDRLEIMTAVRPGFHNPAVTAKMAANIDQLSNGRFTLNVVSAWWEEEAKQYGGVFTAHDERYDRTEEFVTILKGLWKEEEFSYKGNFYELHHTHLSPKPVQKQGIKLYAGGESKRGKEVIVNHADAYVMHGGTVEEVSVKIEDMKNRRKKVTEEPLQSFGLAAYVICRHTEEEALEEWRRITDVKDDALGYAGYQDFVSKSQLEQQVKLNDYSVSNRGLRPNLIGTPEQIAERILAFEKVGVTLLLLQFSPQLEEMKRFSEKVMPLVEAKRKELIT
  protein production: not failed

## MERNSWAEQWDSNQQSSGKTTHGGEGGGASSKYKEKVGAGLGKTKAAASSGLKKVKIGTSLGLNWVKDKYNKTTTKN
  protein production: failed

## MSPTRAQRLEGLERIAYCSDVKLFFLVSGSRMFLLLLMLFLRVALPHIYGTELLWDSGTLLYDDMNSTWSLLNFPRSWDGVHFFHVAKHGYSHENVCAFFPLVPFIVRTVSWLNDVLLPEFLTAVPVTFQVALLNVAMGGAAAVCLRRITILTLLSGSHGVDYTNKKDKAMSMTSGTWLDSLPLPPPYYRHEVTVKEHLNARLWKEVGATVLMWMLSPTAVFSVVLYTESVFSFATFLGVYMLIVSPQGKWRTAAAEAGAVLCFAVAGCARSNATTYIGFVLYPVFLQVFFFDTYRKRYAKRYGVTSPIRRWPSLARCVIVLIEVVIIITPYLGLNYLCYSRFVPLWDDMSRAAIGGRFWAFYGWMQKRYWNVGFLQSYRWGNAPNVLISAPIMFFTVRGFVLFIVQPALARSMETESNISKEYQEPRSDCREDRCGNKKQRLFSIYKLMENLVQSSNIICLLVILAFGATMAHVNVVNRLVMSSPALYWLWGRQFVCDPWGGNTVVMVRIFLLWNCIGALFVPNGLPWT
  protein production: failed

## DLQAYLQAHYDVLEGKIQLDINGTEIQKGVWVGSGAIIEPGAILNPPCVIGDNCRIESGAVIDSLSVIGNNNVIERDSSVKRSVIWDGNYIEYGSK
  protein production: failed

## MSSRQQDTAPCNHRFSGSVPVFSAAPCPHPAASFISLPAGSPYDEKRFVPAPRRHVPMLNYIWSGLIIGSLLFALTVDTQELVENRFRNETALPVALDFPDGYAPDARRQPVEIRIDSATYRDVYGVNAAPDPVYAGTLVQTQEGRKVEFDPDADLPEPLATIQSFHATDDNPALRGALQGTSRTTAGVGRTETALQFEPVRFRKLNDIAQAALNFAETAASLALSLIGVLGLMLGLVKIGEEAGLIESLTGIVQPILSPLFPNVPDDHPALANISLNLLANVFGLGNAATPLGIKAMEDLQELNPSDEKASDDMVMLLALNTSSVQLVPPSLLVAIMGLQINQLFFSITLATLCSTVAGILGTLALHRLPYFRATAPHRTADAEDPDE
  protein production: failed

## MCPEFQRKAAGAPRMGAMLARCVLTAALALQAAAAARAVEIEIGVASRGVVDGLEFVQFSADERTMATTHWGNVVHLWDLKTLRVRSSVSVANRDFDFDLSPDGRALAVWNEEGKGEIELYDTDNGQPARALPAPRLPQGESRRGRSLVYRDDGTLEFVSHGWIGGHARKAYLLAVPAGQPRAAETPLPALVNSVAFRKSAVMDQGRLLLAGVDGADDELAIMDIASGRMLAREPGFRIASYAADARRAVFVEADGKQRILAFDFSSRSLSTLPRWTGSGKFQPYRFVAGTRFLVLAPDEPDASTRRAAPGIYDLQTRRLHRLPPDADPGSIDVWGATASYVLCNPDHTACQAEVADLAISRKLGTFAVQPSADFRTWISPSGSMVVVGGADDGTMMVWSVKEQRVIGPNLEHHHHHH
  protein production: failed

## MVIIDWSLSVDRTIPKPLRIILRGVGQVFFCCNAVTGLIFLMALYIGGVTAGLAATAGVFSSTIAAHLLGFPEKDIDAGLYGFNGTLVGPCLFLFLENSPQLWLYVVLASILSTIVLAALMRILQPCDIPASTAPFILTCWMFMAAVYAFDSFSRGPLLPTAGIPVEAANISMIPVEIGYMAAAKGISEVMFADSVVVGILFLAGIAIHSLRGAAMALAGAIVGIVIPVLLGMDKSLIEMGLYAFNPVLAMMAVGWAFLKPSGRSMGLAFLAGIFTVICQAGLTGFLTPLGLPVLTFPFVLVMWVFLLAASRSKYWEYLNQGK
  protein production: failed

## DLEVHGDKDDAELLIIGWGGTYGHLYETMERMRNAGKKVALAHFRFINPLPKNTAEVLQRYPKAVVAEQNLGQFALYLRGEVPGFHPLQFNRVTGQPLVMSEMVEVFTQMMEEK
  protein production: failed

## MTYSFSKPVSWVFLFTAVIYLVSLSFIQYPATTVLKPIPIVCLIVGVFRTSLSSSAKILLILALVFSLAGDVVLTLPFSLQLELGIACFLLAHCFYITLFLKSFEFNRLHLFYYLPIFLFMGFAAFTMIPYLGNLLIPVMIYFCVLMLMVFSAFQVKKETLTISSGALFFLISDLTLALNLFIYTQADVRIFVMFTYYVAQFLLTFGLVRLYEKGG
  protein production: failed

## CEGGVDMQQSQVQLQCPLTPPRGLQVSIQGEAVAVRPGEDVLFVVRQEQGDVLTTKYQVDLGDGFKAMYVNLTLTGEPIRHRYESPGIYRVSVRAENTAGHDEAVLFVQV
  protein production: not failed

## MSWFDDLFSNKENSDEELLRRKSKRRNGDLTQNKDDSLLPENNDIYDRPRGKFRFPIDVGQDENYEEAIYRDSNDDIGSYRPHSSNDHSSYDSFDYDGHTNQSNNYAKYDSSEDSRRRRRRNHINQDDTGIPSIKSRSPKSSNKYIDTRESQRFNKHQNNYSSTNVSNYSKANSNHQSRVKLQSERFKSNYHLSSEPTYHRSSFKTSEVPSAIFGTKKRRPIENGVIPPVKDDEDSKESITKYSSSTVEHVPHESNHAIADNSNKEDTKRSSQLDSSITIENESTIESSSNTSNNNERTPNYSKRDNTVNIENIYASQIVEEIRKERERKVQQKRKFKEALQNKRQQTDEEDSIQRAIDEMYAKQAEQYTGESSLNQGDNVSNKSNESEIDKSKHSYHSKDKSLVDEHNGLVQNQTDEQTNSDNVDNQTEVSNESHEPYNYEEIDLNQVSSVQQVRQDDVQVKDVLEEQSSKINNNKVESYSNEKFDDYLEDTNSHEEMLHDDDLHEQVMDDDENEGISNKTTDENNDEKIDDANYREINESESLMQDKANDLKFNDEVNNSENQQNSSENNINNAVRNAVSSDIEYATNEDEENDERLAQDTNKEDQKLSQSEDIQHESLNNEDVSLTSNKTDDSEHLEKDSLNEDKKAEPSFNKTNKAPQKMSIKPGSKPFNVVMTPSDKKRVMDAKKNSVSRNKVNVPELKPETKKEAQDEKMNAEFDNHLNESQLNSDESSDFNVASLEYNESSEHSVEKDNIINDENTRENEHQDVDNSQNNDMPKGNQFSKVQNSNNQNDNKHDINEFVSKEGYSEVTSTKNHKDGDDANHKAPIRRGPNIKLPSLDLLEDHEEHEIDESWIEEKKQELNDAFYYFNVPAEVQNVTEGPSVTRFELAVEKGVKVSRITALQDDIKMALAAKDIRIEAPIPGTSLVGIEVPNLNPTKVNLKSILESPKFKNAESKLTVAMGNRINNEPLLMDIAKTPHALIAGATGSGKSVCINSILMSLLYKNHPEELRLLLIDPKMVELAPYNDLPHLVSPVITDVKAATQSLKWAVDEMEKRYKLFAQFHVRNITAFNKKAPYEQRMPKIVIVIDELADLMMMAPQEVEQSIARIAQKARACGIHMLVATQRPSVNVITGLIKANIPTRIAFMVSSSVDSRTILDSGGAERLLGYGDMLYLGSGMNKPIRVQGTFVSDDEIDDVVDFIKDQREPDYLFEEKELLKKNQTQAQDELFDDVCEFMVKEGHISTSLIQRHFQIGYNRAARIVDQLEQLDYISGANGSKPRDVFITEADLKKE
  protein production: failed

## MQFQIGDMVARKSYQMDVLFRIIGIEQTSKGNSIAILHGDEVRLIADSDFSDLVAVKKDEQMMRKKKDESRMNESLELLRQDYKLLREKQEYYATSQYQHQEHYFHMPGKVLHLDGDEAYLKKCLNVYKKIGVPVYGIHCHEKKMSASIEVLLDKYRPDILVITGHDAYSKQKGGIDDLNAYRHSKHFVETVQTARKKIPHLDQLVIFAGACQSHFESLIRAGANFASSPSRVNIHALDPVYIVAKISFTPFMERINVWEVLRNTLTREKGLGGIETRGVLRIGMPYKSN
  protein production: not failed

## MRLAGVGKSCLFAGRCAGIRPRRRLRWVLHFTATVPLNSMSSRRAFLRQCGLALAAAPALSSLPPWLSSADGFTSLRGGIGTFTQRGGTIGWLATDDGIAVVDTQSPQSAPDCWNGLRERSDSPLAMVINTHHHGDHVGGNGVFARHTDRLVAHANVPELMRAGAEDGAADEKTYPTETFQDTWSEPLGDETITLRYRGPAHTGGDAIVVFENANIVHVGDLVFNRAYPFIDVGGGADSQGWIDSLETIHGALDDDTIVIHGHGNPDFGVTGGREDLLVMRDFLSALNEYVTQQRQAGASLDEMKQTKVLDGFEAFNFDWALSLADCIEAVYREQTAG
  protein production: failed

## MKKPVYMKGGLHWLRNDGAIVAFNPETEKARLISIRFPKELCSKTLFTAADNNLILISATEEVFYVYAVENILTDPKWVVLKQIRNGVLDEKMLYSWYPEAYDGKCLMLREILKKDHYKQVLHGYDLRANKWEVIGSIPGWYTSALDFYQFTPSLSSVIGPDAKEEEEILACDHKKISSINSIIRMLDGISS
  protein production: failed

## MSETERTLVIIKPDAVVRGLIGEIISRFEKKGLKIVGMKMIWIDRELAEKHYEEHREKPFFKALIDYITKTPVVVMVLEGRYAVEVVRKMAGATDPKDAAPGTIRGDFGLEVSDAICNVIHASDSKESAEREISLFFKPEELFEYPRAADWFYKKGI
  protein production: not failed

## TDGEGEDPAEYPTVNHKIEKAIEVTKTGLEEYENPVVMWTGGKDSTLTLYFVKEVAERFDLEVPPVVFIDHYQHFDELIDFVEHWADEWDLDVIWARNEDVGNYVDENGLEPGDDIPVDELSEHNQHHIRNILEYEEDTFPFLLDTYVGNHLLKTVALNDTIEEHDVDGILSGIRWDEQESRADETFFSPRHDPDIYPPHDRIQSILQFAEADVWEAFWNFVVPDTVEGYPDEGYVPQGQDDLPEGIEKEDVPVSPKYFAGFRSLGSE
  protein production: failed
